We go through five molecules from patent US20210275695A1 (CASE WESTERN RESERVE UNIVERSITY, published 2021).

Bridges are numbered along the chain shown (N, C = ends). Where no end group is shown, it is not given here. Side-chain parts run from the residue outwards. maleimide = maleimide group that reacts with the cysteine thiol to conjugate the peptide to the carrier (horseradish peroxidase); Gd(HP-DO3A) (azide, via triazole) = azido-Gd(HP-DO3A) gadolinium chelate, click-linked through a triazole; sulfo‑Cy5 = sulfo-cyanine 5 fluorescent label; HRP = horseradish peroxidase; PEG3 = NCCOCCOCCOCCC(=O)O

The target in test [1] is T1, EDB fragment (extradomain B of fibronectin), expressed in E. coli with an N-terminal 10xHis tag (UniProt P02751 1266-1356).
T1 construct: domain: EDB; also called EDB protein; purified EDB; not shown: N-terminal 10xHis tag from the pQE-T7-1 vector
T1 sequence (P02751 1266-1356): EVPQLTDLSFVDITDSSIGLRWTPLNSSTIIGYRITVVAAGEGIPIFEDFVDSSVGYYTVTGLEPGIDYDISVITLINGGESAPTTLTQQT
Nature of the test: phage display, four rounds of panning on immobilised purified EDB fragment. Here is the method: The Ph.D C7C library (New England Biolabs, Beverly, Mass., USA) was used for screen EDB specific nonapeptides. Candidate peptides were selected by carrying out panning procedures for 4 rounds. In each round, purified EDB fragment (100 μg/ml) was immobilized on non-treated 96-well plates (Corning Costar, Tewksbury, Mass., USA) with overnight coating at 4° C. 0.5% BSA was used to block non-specific binding (1 hr, room temperature) followed by incubating with phages for 1 hr at room temperature. Extensive washing with PBST (0.1%, 0.3%, 0.5% […], respectively, for round 1-3) was used to remove non-binding phages before eluting bound phages by 0.1M Glycine-HC (pH 2.2) and neutralizing with Tris-HCl (pH 9.1). Eluted phages are tittered and amplified with E. coli (ER2758) according to the user's manual. Amplified phages in medium were purified by ultrafiltration and PEG/NaCl precipitation. At the end of round 4, properly diluted phages were cultured on LB/IPTG/Xgal plates and DNA from 29 randomly picked blue plaques were used for sequencing with supplied primers (New England Biolabs). Peptide sequences were resulted from translating of corresponding DNA sequences.
The Ph.D C7C library (New England Biolabs, Beverly, Mass.) was used to screen for EDB-specific cyclic nonapeptides. Candidate peptides were selected by panning for four rounds. […]

Test [2] addresses T1, EDB fragment (extradomain B of …). The test is described as follows: ELISA, HRP-conjugated peptide on EDB protein. A general note: An ELISA detects its analyte on a solid surface through an enzyme-linked reagent.
Test [3] shares this target. The test is described as follows: SPR (Biacore T100), EDB protein immobilised on a CM5 chip, Scatchard plot. Here is the method: The ZD2 peptide sequence, TVRTSAD (SEQ ID NO: 1), was synthesized in solid phase using Fmoc chemistry. A short spacer, Fmoc-9-amino-4,7-dioxanonanoic acid (Fmoc-NH-PEG₂-CH₂CH₂COOH), and 5-hexynoic acid, were also sequentially conjugated in solid phase followed by trifluoroacetic acid (TFA) treatment, which yielded ZD2-PEG-propargyl. Azido-Gd(HP-DO3A) was synthesized as reported previously. Click chemistry reaction between ZD2-PEG-propargyl (1 Eq) and azido-Gd(HP-DO3A) (1.1 Eq) was performed in a 2:1 mixture of t-butanol and water under nitrogen following addition of [Cu(MeCN)₄]PF₆ (0.02 Eq) and TBTA (Tris[(1-benzyl-1H-1,2,3-triazol-4-yl)methyl]amine, 0.02 Eq). The final product, named ZD2-Gd(HP-DO3A), was purified by high performance liquid chromatography (HPLC) on an Agilent 1100 HPLC system equipped with a semi-preparative C18 column. […] The Gd(III) content was measured by inductively coupled plasma optical emission spectroscopy (ICP-OES Optima 3100XL, Perkin-Elmer, Norwalk, Conn.). […] Sensorgrams generated from the binding between contrast agents and EDB were recorded with Biacore T100 (GE healthcare, Waukesha, Wis.), and analyzed using Scatchard plot. Affinity was calculated by fitting data into a linear line, with the slope of the line representing −1/Kd.
(In general: In SPR one partner is held on a chip, and binding of the other changes the refractive index at the surface.)

The target of test [4] is extradomain-B fibronectin (EDB-FN), human, as secreted or deposited by human cancer cells and in human tumour tissue (human) (UniProt P02751). The test is described as follows: histogram of Cy5 pixel intensities of ZD2-Cy5 staining (5 µM) of a human prostate BPH section, tissue with low EDB-FN.
extradomain-B fibronectin (EDB-FN), human, as secreted or deposited by human cancer cells and in human tumour tissue (human), sequence (P02751 32-2477): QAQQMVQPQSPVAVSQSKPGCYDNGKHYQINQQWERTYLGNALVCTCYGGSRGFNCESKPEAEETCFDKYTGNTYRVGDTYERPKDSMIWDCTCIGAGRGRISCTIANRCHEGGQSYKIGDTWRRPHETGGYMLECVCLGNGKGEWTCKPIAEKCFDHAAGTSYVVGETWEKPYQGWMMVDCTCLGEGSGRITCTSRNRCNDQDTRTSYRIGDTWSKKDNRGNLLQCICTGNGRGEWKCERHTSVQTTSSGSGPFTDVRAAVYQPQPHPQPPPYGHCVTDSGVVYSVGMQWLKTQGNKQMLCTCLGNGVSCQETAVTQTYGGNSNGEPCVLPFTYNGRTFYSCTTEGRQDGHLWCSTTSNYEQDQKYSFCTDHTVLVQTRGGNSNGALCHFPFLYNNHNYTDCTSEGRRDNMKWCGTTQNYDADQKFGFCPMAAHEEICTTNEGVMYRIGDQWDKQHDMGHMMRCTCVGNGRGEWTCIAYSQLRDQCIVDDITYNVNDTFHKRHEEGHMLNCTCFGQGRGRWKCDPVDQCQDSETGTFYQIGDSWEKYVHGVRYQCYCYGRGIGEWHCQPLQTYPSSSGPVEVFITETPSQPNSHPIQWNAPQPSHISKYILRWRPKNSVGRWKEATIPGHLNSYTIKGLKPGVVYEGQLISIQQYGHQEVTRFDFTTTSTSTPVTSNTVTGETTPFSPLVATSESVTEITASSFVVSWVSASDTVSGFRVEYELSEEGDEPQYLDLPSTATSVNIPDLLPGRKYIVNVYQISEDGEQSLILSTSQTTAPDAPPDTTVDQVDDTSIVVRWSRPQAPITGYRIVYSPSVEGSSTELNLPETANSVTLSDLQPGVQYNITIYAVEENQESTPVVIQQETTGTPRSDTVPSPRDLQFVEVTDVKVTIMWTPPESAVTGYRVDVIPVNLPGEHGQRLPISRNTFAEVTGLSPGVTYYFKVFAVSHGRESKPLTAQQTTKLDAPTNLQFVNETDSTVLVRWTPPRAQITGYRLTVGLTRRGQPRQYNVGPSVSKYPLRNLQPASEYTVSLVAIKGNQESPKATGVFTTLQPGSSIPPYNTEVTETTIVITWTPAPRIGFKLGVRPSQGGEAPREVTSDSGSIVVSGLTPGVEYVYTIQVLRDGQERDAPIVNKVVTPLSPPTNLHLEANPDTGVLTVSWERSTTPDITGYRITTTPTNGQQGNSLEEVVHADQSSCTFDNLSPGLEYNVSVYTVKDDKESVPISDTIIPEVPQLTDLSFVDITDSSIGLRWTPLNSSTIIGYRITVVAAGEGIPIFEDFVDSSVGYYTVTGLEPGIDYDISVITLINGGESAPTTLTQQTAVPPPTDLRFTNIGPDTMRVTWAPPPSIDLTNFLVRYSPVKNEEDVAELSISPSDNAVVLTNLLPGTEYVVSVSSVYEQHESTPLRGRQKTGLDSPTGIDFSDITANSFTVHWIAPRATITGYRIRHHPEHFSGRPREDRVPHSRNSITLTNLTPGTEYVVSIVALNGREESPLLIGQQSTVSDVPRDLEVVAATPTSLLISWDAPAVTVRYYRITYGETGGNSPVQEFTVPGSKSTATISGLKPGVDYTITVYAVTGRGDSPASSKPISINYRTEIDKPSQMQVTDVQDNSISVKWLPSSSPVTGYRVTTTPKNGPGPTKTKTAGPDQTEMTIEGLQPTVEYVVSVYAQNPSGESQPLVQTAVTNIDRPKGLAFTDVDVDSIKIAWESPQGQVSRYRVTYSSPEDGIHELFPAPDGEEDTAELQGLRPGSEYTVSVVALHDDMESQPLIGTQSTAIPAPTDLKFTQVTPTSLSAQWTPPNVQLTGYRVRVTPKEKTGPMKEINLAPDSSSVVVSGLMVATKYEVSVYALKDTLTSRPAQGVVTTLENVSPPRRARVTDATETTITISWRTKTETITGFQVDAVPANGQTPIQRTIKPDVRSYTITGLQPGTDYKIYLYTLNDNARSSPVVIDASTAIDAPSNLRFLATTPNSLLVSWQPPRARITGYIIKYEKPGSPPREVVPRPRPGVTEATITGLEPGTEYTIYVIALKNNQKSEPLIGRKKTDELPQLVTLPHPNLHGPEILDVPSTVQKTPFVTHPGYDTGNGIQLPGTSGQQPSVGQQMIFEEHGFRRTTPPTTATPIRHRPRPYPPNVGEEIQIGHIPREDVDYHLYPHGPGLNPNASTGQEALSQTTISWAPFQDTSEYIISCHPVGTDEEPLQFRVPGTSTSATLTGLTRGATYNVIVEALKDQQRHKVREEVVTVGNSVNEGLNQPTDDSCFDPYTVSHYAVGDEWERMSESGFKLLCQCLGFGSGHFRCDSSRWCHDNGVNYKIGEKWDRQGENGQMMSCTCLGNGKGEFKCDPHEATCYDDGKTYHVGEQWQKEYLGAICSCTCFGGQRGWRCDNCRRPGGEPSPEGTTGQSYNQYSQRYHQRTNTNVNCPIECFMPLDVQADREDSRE
For test [5] the target is unchanged. The test is described as follows: histogram of Cy5 pixel intensities of ZD2-Cy5 staining (5 µM) of a human prostate tumor section, GS=7.
For test [6] the target is unchanged. The test is described as follows: histogram of Cy5 pixel intensities of ZD2-Cy5 staining (5 µM) of a human prostate tumor section, GS=9.
Test [7] has as its target T2, EDA (extradomain A of fibronectin) (UniProt P02751 1722-1811, limits assumed).
T2 construct: domain: EDA
Nature of the test: ELISA, HRP-conjugated peptide.

T2 sequence (P02751 1722-1811 limits assumed): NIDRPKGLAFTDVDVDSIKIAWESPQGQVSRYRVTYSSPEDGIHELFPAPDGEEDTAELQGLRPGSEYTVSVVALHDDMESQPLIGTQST

With CTVRTSADC (disulfide 1-9 (inferred); not fully specified, also called cyclic nonapeptide ZD2) [cyclic ZD2 peptide (CTVRTSADC) as selected by phage display], in test [1], the binding result was “binds”.

For CERAK (also: conjugated to HRP, 'similarly' to l-ZD2-HRP, Control peptide) [CERAK-HRP], the binding result in test [2] is “no binding”.

One may read the Kd as the free concentration of one partner at which half of the binding sites on the other are occupied at equilibrium, for simple one-to-one binding. {Gd(HP-DO3A) (azide, via triazole)-5‑hexynoic acid-9‑amino‑4,7‑dioxanonanoic acid}-TVRTSAD (also: Gd complex, also called ZD2-Gd(DO3A)) [ZD2-Gd(HP-DO3A) (linear ZD2 peptide TVRTSAD joined through PEG and a triazole to Gd(HP-DO3A))] yielded a Kd in test [3] of 1.7 µM.

With {sulfo‑Cy5-PEG3}-CTVRTSADC-OH (disulfide 1-9) [ZD2-Cy5 (cyclic ZD2 peptide … labelled with Cy5 through a short PEG linker)], the figures for the percent pixel counts of Cy5 pixel value 50 to 255 in test [4], in test [5] and in test [6] were 2.1%, 40% and 72.2%, respectively.

On to H-TVRTSADC([maleimide-HRP])-OH, for which, in test [7], the binding result is “no binding”.
